Data on two molecules can be found in patent US20070020257A1.

The target of the test is integrins on cell surface of mucosae. Briefly: cell-based or functional assay.

RGDTYEAALKQYEADLKKTYEAALKQYEADL [RGD-DUP (di unit peptide with the cell attachment motif RGD at the N-terminal region)] yielded a Titer against PAc (intranasal RGD-DUP given together with an excess of RGDS peptide as inhibitor) (titer (maximum serum dilution)) of 256 and a Titer against PAc (serum of BALB/c mice after intranasal administration of RGD-DUP) (titer (maximum serum dilution)) of 5070.
YIGSRTYEAALKQYEADLKKTYEAALKQYEADL [YIGSR-DUP (di unit peptide with the cell attachment motif YIGSR at the N-terminal region)] showed a Titer against PAc (intranasal YIGSR-DUP given together with an excess of YIGSR peptide as inhibitor) (titer (maximum serum dilution)) of 235 and a Titer against PAc (serum of BALB/c mice after intranasal administration of YIGSR-DUP) (titer (maximum serum dilution)) of 1200.
